Measured values reported in publication PMC10673654, “MdAIL5 overexpression promotes apple adventitious shoot regeneration by regulating hormone signaling and activating the expression of shoot development-related genes”.

T1: MdAIL5 (Malus domestica (apple)?, UniProt A0A678R5P4 1-555)
T1 sequence: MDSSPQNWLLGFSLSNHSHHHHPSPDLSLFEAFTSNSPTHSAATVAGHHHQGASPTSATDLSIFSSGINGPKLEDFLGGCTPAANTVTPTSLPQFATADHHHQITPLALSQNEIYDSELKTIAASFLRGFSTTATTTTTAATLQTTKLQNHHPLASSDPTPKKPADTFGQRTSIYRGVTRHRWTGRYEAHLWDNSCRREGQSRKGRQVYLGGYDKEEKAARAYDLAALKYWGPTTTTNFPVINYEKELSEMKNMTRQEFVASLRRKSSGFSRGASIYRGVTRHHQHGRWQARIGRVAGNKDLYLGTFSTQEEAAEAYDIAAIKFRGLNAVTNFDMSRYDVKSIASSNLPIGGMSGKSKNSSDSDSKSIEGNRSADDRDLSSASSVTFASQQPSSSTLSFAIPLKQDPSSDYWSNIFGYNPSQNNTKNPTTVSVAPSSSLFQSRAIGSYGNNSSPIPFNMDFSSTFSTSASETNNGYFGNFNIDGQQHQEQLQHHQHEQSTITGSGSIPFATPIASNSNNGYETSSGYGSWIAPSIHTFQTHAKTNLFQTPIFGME


Molecular target: T1, MdAIL5
Assay: EMSA; LightShift Chemiluminescent EMSA Kit per manufacturer; buffer, salt, pH and temperature not stated
Conditions: protein: recombinant; tags: GST (N-terminal, pGEX-4T-1); cold version unlabeled; blunt

Binder | binding result
Probe with CACGCATCCCGAAG (Table S1: MdHB14pro; text and Fig. 6d: MdARF9 promoter) (dsDNA) DNA 1: CGTTACACCAAACCACACGCATCCCGAAGCGCCGTTCACGTCAA DNA 2: TTGACGTGAACGGCGCTTCGGGATGCGTGTGGTTTGGTGTAACG | binds
Probe with CACAATTGCCTATG (Table S1: MdARF9pro; text and Fig. 6e: MdHB14 promoter) (dsDNA) DNA 1: TGGGCTATTACATCCCACAATTGCCTATGAGTGGCCAATTTTTCCT DNA 2: AGGAAAAATTGGCCACTCATAGGCAATTGTGGGATGTAATAGCCCA | binds
